Assay results: patent US20200017877

Columns and labels:
Assay in all cases: cell_activity
btGDF83.6 right TALEN = conditions: pair, listed as btGDF83.6N
ssTp53 right TALEN = conditions: pair
ssGDF83.6 right TALEN = conditions: pair, 3/90
[1] = test system: Kiss1.1a (tilapia) left TALEN; conditions: pair, tilapia Kiss20; range 48-91; Kiss1.1a locus
[2] = test system: Kiss1.1a (tilapia) right TALEN; conditions: pair, tilapia Kiss20; range 48-91; Kiss1.1a locus
ssAPC14.2 right TALEN = conditions: pair
caFecB6.1 left TALEN = conditions: pair
ssRAG2.1 left TALEN = conditions: pair
ssGDF83.6 left TALEN = conditions: pair, 3/90
ssEIF4GI14.1 right TALEN = conditions: pair
btRosa1.2 right TALEN = conditions: pair
ssLDLR2.1 right TALEN = conditions: pair LDLRE2.1, pig male fibroblasts
ssSRY3.2 left TALEN = conditions: pair
caFecB6.1 right TALEN = conditions: pair
ssDAZL3.1 right TALEN = conditions: pair
ssSRY3.2 right TALEN = conditions: pair
ssRAG2.1 right TALEN = conditions: pair
btACAN12 right TALEN = conditions: pair, cattle fibroblasts
btACAN12 left TALEN = conditions: pair, cattle fibroblasts
ssEIF4GI14.1 left TALEN = conditions: pair
ssLDLR2.1 left TALEN = conditions: pair LDLRE2.1, pig male fibroblasts
ssP65.8 left TALEN = conditions: pair
btRosa1.2 left TALEN = conditions: pair
btGDF83.1 right TALEN = conditions: pair, cattle fibroblasts
ssP65.8 right TALEN = conditions: pair
caCLPG1.1 left TALEN = conditions: pair caCLPG1.1
ssDMDE7.1 right TALEN = conditions: pair, pig fibroblasts
ssDMDE7.1 left TALEN = conditions: pair, pig fibroblasts
ssKissR3.2 left TALEN = conditions: pair
btGDF83.6-G left TALEN = conditions: pair, listed as btGDF83.6N
caCLPG1.1 right TALEN = conditions: pair; 0/14 colonies confirmed (Table 6)
ssAPC14.2 left TALEN = conditions: pair
ssDAZL3.1 left TALEN = conditions: pair
ssTp53 left TALEN = conditions: pair
btGDF83.1 left TALEN = conditions: pair, cattle fibroblasts
ssDMDE6 left TALEN = conditions: pair, pig fibroblasts
ssDMDE6 right TALEN = conditions: pair, pig fibroblasts
ssKissR3.2 right TALEN = conditions: pair

AAAAGTATCCTCAT (double strand) [GDF83.6 right half-site (sense strand)]
activity (btGDF83.6 right TALEN): 18 % HDR day 3

AAGTCAGAGTACATG (double strand) [Tp53 right half-site (sense strand)]
activity (ssTp53 right TALEN): 22 % HDR day 3

ACAAAAATACCCTCAC (double strand) [ssGDF83.6 right half-site (sense strand)]
activity (% HDR+ colonies) (ssGDF83.6 right TALEN): 3

ACAACCCTCTCAGCCTT (double strand) [Kiss1.1a left half-site]
activity (% mosaic somatic mutation) [1]: 91

ACAATGGCTACATTTAC (double strand) [Kiss1.1a right half-site (sense strand)]
activity (% mosaic somatic mutation) [2]: 91

ACAGAAATTCTGGGTC (double strand) [APC14.2 right half-site (sense strand)]
activity (ssAPC14.2 right TALEN): 48 % HDR day 3

ACAGAGGAGGCCAGCTGGTT (double strand) [FecB6.1 left half-site]
activity (caFecB6.1 left TALEN): 17 % HDR day 3

ACCTTCCTCCTCTCCGCT (double strand) [RAG2.1 left half-site]
activity (ssRAG2.1 left TALEN): 47 % HDR day 3

ACTGCTCTGGAGAGT (double strand) [ssGDF83.6 left half-site]
activity (% HDR+ colonies) (ssGDF83.6 left TALEN): 3

AGCAACCGTGGGCCCCCA (double strand) [EIF4GI14.1 right half-site (sense strand)]
activity (ssEIF4GI14.1 right TALEN): 52 % HDR day 3

AGGTAGGGTGGAGAGAG (double strand) [Rosa1.2 right half-site (sense strand)]
activity (btRosa1.2 right TALEN): 45 % HDR day 3

AGTGCAAGGACGGGTCCG (double strand) [LDLR2.1 right half-site (sense strand)]
activity (% modified day 3) (ssLDLR2.1 right TALEN): 19

ATACATTTTACACACATAT (double strand) [SRY3.2 left half-site]
activity (ssSRY3.2 left TALEN): 30 % HDR day 3

ATATCAGACGGTGTTGATG (double strand) [FecB6.1 right half-site (sense strand)]
activity (caFecB6.1 right TALEN): 17 % HDR day 3

ATATGGTTCAGTAAAAG (double strand) [DAZL3.1 right half-site (sense strand)]
activity (ssDAZL3.1 right TALEN): 25 % HDR day 3

ATTAATGGCCTGAACCT (double strand) [SRY3.2 right half-site (sense strand)]
activity (ssSRY3.2 right TALEN): 30 % HDR day 3

ATTCAAAAGCAGCTTAG (double strand) [RAG2.1 right half-site (sense strand)]
activity (ssRAG2.1 right TALEN): 47 % HDR day 3

CCCTCTTCCTTTCCTCCAGGGATCCCTCCTACATGGCCTCCCACTGGAGAAGCAACAGAGGAGCACACAGA (double strand) [ACAN12 target]
activity (% modified day 3) (btACAN12 right TALEN): 29
activity (% modified day 3) (btACAN12 left TALEN): 29

CCGTCCTTTGCCAACCTT (double strand) [EIF4GI14.1 left half-site]
activity (ssEIF4GI14.1 left TALEN): 52 % HDR day 3

CTCCTACAAGTGGATTT (double strand) [LDLR2.1 left half-site]
activity (% modified day 3) (ssLDLR2.1 left TALEN): 19

CTCCTCCATTGCGGA (double strand) [P65.8 left half-site]
activity (ssP65.8 left TALEN): 18 % HDR day 3

CTCGCATTGCCCACT (double strand) [Rosa1.2 left half-site]
activity (btRosa1.2 left TALEN): 45 % HDR day 3

CTCTAACTGTGGATTTTGA (double strand) [GDF83.1 right half-site (sense strand)]
activity (% modified day 3) (btGDF83.1 right TALEN): 17

CTTCTGAGTCAGATC (double strand) [P65.8 right half-site (sense strand)]
activity (ssP65.8 right TALEN): 18 % HDR day 3

GAGAGCGCAGGAATCCAGG (double strand) [CLPG1.1 left half-site]
activity (caCLPG1.1 left TALEN): 4 % HDR day 3

GCCACACAACGACTGGAACATGCATTCAACATCGCCAAGTATCAGTTAGGCATAGAGAAACTACTGGATCCTGAAGGTT (double strand) [DMD exon 7 target]
activity (% modified day 3) (ssDMDE7.1 right TALEN): 27
activity (% modified day 3) (ssDMDE7.1 left TALEN): 27

GCTCTACTCTACCCC (double strand) [KissR3.2 left half-site]
activity (ssKissR3.2 left TALEN): 53 % HDR day 3

GCTCTGGAGAATGT (double strand) [GDF83.6-G left half-site]
activity (btGDF83.6-G left TALEN): 18 % HDR day 3

GCTGGGACCACCTGTCAG (double strand) [CLPG1.1 right half-site (sense strand)]
activity (caCLPG1.1 right TALEN): 4 % HDR day 3

GGAAGAAGTATCAGCCAT (double strand) [APC14.2 left half-site]
activity (ssAPC14.2 left TALEN): 48 % HDR day 3

GGATGAAACCGAAATT (double strand) [DAZL3.1 left half-site]
activity (ssDAZL3.1 left TALEN): 25 % HDR day 3

GGCACCCGTGTCCGCGC (double strand) [Tp53 left half-site]
activity (ssTp53 left TALEN): 22 % HDR day 3

GTGATGAACACTCCACAGAATCT (double strand) [GDF83.1 left half-site]
activity (% modified day 3) (btGDF83.1 left TALEN): 17

TCTATACCTAGGTCAAAAATGTAATGAAGAAAGTATCAGTTAGGCATAGAGAAACTACTGGA (double strand) [DMD exon 6 target]
activity (% modified day 3) (ssDMDE6 left TALEN): 25
activity (% modified day 3) (ssDMDE6 right TALEN): 25

TGGGCGACTTCATGTGC (double strand) [KissR3.2 right half-site (sense strand)]
activity (ssKissR3.2 right TALEN): 53 % HDR day 3
